Data from the supplement of paper PMC12764529.
± gives the half width of the 95% confidence interval.

Test: folding stability dG unfold from trypsin proteolysis; higher = more stable
Summary of the method: (§1)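 Mini-proteins designed to be under 80 residues and free of cysteine were carried in a PA-tagged cDNA display construct and digested with trypsin and with chymotrypsin. Each protease was applied at 11 threefold-diluted concentrations, alongside a no-protease condition, before sequencing. K50 came from Bayesian fitting of the sequencing counts, and unfolding free energy was obtained by comparing it with a sequence-predicted unfolded-state K50 and a shared folded-state K50, for each protease separately or for both together. Designs were retained only if their AlphaFold2 dimer inter-PAE exceeded 15.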

Row | Sequence | folding stability dG unfold [kcal/mol]
1 | SAGGSAGGSAGTLKLTLEVTVTRLYRLPDGSGSLVAETVRVRVEVELEVDELDEDGRLLLSAGGSAGGSAGG [r11_558_TrROS_Hall] | 3.08 ± 0.14
2 | SAGMVIPILLKPEPERPEEVEKKAIEFANKLKPLNLPNVKIKVYRAPYVDPETGKTTVLYLVLIEVEPPSAG [r5_49_TrMRF] | 1.83 ± 0.1
3 | SAMTPEEIKERLAAELPPSAEVMTTETFKEGDVEYVKITLRTPDSLSEATYNLETGEIERTPIGLDVPQSAG [r14_737_JUSTAS] | 0.423 ± 0.13
4 | SAGGSAGGSAGKIEVEGDVEVTVFPPYGLATVTTPNGERYVLLVETRPDGSKRVLLFSAGSAGGSAGGSAGG [r11_331_TrMRF] | 2.02 ± 0.039
5 | SAGGSAGGRKTRRLVLEVDDIPEGVSAEELTEEELRRLGLPPDARIRVVRRPDGRLLVVIEVRESAGGSAGG [r6_551_TrROS_Hall] | 1.64 ± 0.022
6 | SAGGSAGGSAGGMMKITIEVDGKKIEITLPPGAELKFDKEKKEIYIRNKKTNEILKLKIKSAGGSAGGSAGG [r7_7_TrROS_Hall] | 1.9 ± 0.048
7 | SAGGSAGGSAGKKKILLKFKSAEEALEAIKKGKTIKLKNGKTVKVKKVTLDKNGYLLIELSAGGSAGGSAGG [r11_48_TrROS_Hall] | 2.23 ± 0.034
8 | SAGGSAGGSSVLEVDPETGITVAVQDPSTGRYYVRNPEGEIREFDSPEEIREAFGRPVNFKTAPSAGGSAGG [r6_753_JUSTAS] | 0.559 ± 0.018
9 | SAGGDDKWKIEIDIQPHDDYWVITARIRDPNGKERERMFMMPPDNIKKILNELPPEIEDIEVHRVPNSAGGS [r16_298_TrROS] | 2.11 ± 0.074
10 | SAGGSAGGSAGAEIKIKKVEKKDSKLKLILPDGRIYEVKKDKKKSNSIKKIKIKKLPPLKSAGGSAGGSAGG [r17_173_JUSTAS] | 0.113 ± 0.34
11 | SAGGSAGGSAGKKITLPNATITYDEETGEVTITVDGKTITLPPGAKIEVDENGNLTIYLPSAGGSAGGSAGG [r17_34_TrROS_Hall] | 2.45 ± 0.1
12 | SAGGSAGGSAGNMEVIEEVEFTFPGLGVKISVSIFKTDGGIVIMIDIEIPMPPEDRKKFKSAGGSAGGSAGG [r17_431_TrROS] | 0.857 ± 0.097
13 | MKTIEIEIKLSPEIKEALKEGKPLSLEELVNKIKEEIAKKLGLKEVKVKKIEIKKDENGEIIIKVTIEVKPS [r1_290_TrROS_Hall] | 3.9 ± 0.38
14 | SAGMILTIRPEDGSEEIIPVPKEDIEKLIEDLEKKGIKVLSMTTSPDGVSTIPTQYPDGKKMTITVHLDSAG [r5_645_JUSTAS] | 0.707 ± 0.098
15 | SAGGSAGGSAGDENEKPKPKMQMKMIQIKFPPEDLPELAEEFGIDSVHIMPNGSLFIMVYSAGGSAGGSAGG [r11_64_TrROS] | 1.07 ± 0.11
16 | SAGGSAKVIVEELPDGSIKIYFPETGAVIVLNPETGEAVVFVNPKKKNNEPPSLDDVLKAAKEALGSAGGSA [r15_735_TrMRF] | 0.413 ± 0.041
17 | SAMSLTIETDGSLEDVIAALKAFLEANPNVPFIISPPNGEVKVIDLGLADKILVIPDPDGKVRITVINPSAG [r14_807_TrMRF] | 1.76 ± 0.023
18 | SAGGNLFIRIKIEHDGGPITHWFPIKDAEQAKDNIKEFFDQQGLPVKIKEIEVFPEEGFIPVEWRVPPSAGG [r13_567_TrROS] | 0.101 ± 0.12
19 | SAGGSAGGSAGGVPEDVIMSPVSTTLVEKEVLSTEVTPEGAPKTVEKVLIVEKTLEPLLSAGGSAGGSAGGS [r10_758_JUSTAS] | 0.0499 ± 0.05
20 | SAGGSAGGSHRIIFRINSPGMPPRQAADRIADMLQEEHGLKIKGVDIWTYPNGSYWVTITIEPSAGGSAGGS [r12_781_TrROS] | 2.77 ± 0.055
21 | SMKIPVKTNDPEALKELLNKIKEILEKAKEKGYEIFPIPIILDNGKEIIFPIDPNDKIEEVIKKIEEALKSA [r9_127_TrMRF] | 2.7 ± 0.15

Row | Sequence | folding stability dG unfold [kcal/mol]
22 | SAGGSALKIPSGKKYTVVVKDPNKPVEYVADVIERHPDSILIEVKDPNSSKTKKITVPTNVITIDLSAGGSA [r15_381_JUSTAS] | -0.095 ± 0.15
23 | PKWYEMNITINLPPDDPQKVKELKDALKKRNPDYKVKDIQFNPDDGQITINVWMPPQDQNRFQKAIKELLGS [r1_443_TrROS] | 1.86 ± 0.062
24 | SAGGEEELKKNPDLIVIKITIRNKETGEEIEELEIVLSKEELEELLETLRKLLPPGWEIVKVEIRKLPSAGG [r13_849_TrROS_Hall] | 4.11 ± 0.24
25 | SAGGSETVEIELGSEDGTVYKIEIERFPETGLLLIKVDGPDPKVIEKVVKELGVDVVEVLEDGYVLLASAGG [r13_937_TrMRF] | 1.45 ± 0.059
26 | SMTITFKTEEEAKKAAEELLKELEKKLKPGQKIKITVTTEDGKTITIEIEIKPPKKEVEVDEETGELKEKSA [r9_596_TrROS_Hall] | 0.898 ± 0.073
27 | SAGGSLIEKIAKEAGIKVEISKEETNGSPVLTITITKGDKNIVFKDDGKDPEKLVKELAKKIGIKPISAGGS [r8_226_JUSTAS] | 0.499 ± 0.043
28 | SAGGSAAPLPPDETEVRVEYRYDPEKGVLVITTTTTRFTPEGGATPLETRPVVVEVTEEEKKKVELSAGGSA [r15_191_JUSTAS] | 1.25 ± 0.046
29 | SAGGSAGGSELSDEEIEALRKPPKVRIRVEIVYPDGTVEEREFSSLEEALAAAKERNVTVKILSAGGSAGGS [r12_244_TrROS_Hall] | 2.86 ± 0.12
30 | SAGGSAGGVIRMPFVIPDGYVIKDLTVHWSPGNGMFMIEIEIEPVKPPPPPEISPEELNKKNNKSAGGSAGG [r6_148_TrROS] | 2.15 ± 0.21
31 | SAGGSAGVLEAVVFNPETGTFSVIPAAVLEKAFAANPADTELTFTLKDKPVKVFVFPGPGLAVVTGSAGGSA [r15_350_TrMRF] | 1.14 ± 0.018
32 | SAGGSAGGDTLTIVVEGMSAEELAALLKELFPDAEVTVTEVGEPRLVTVTVTVKVETEFELPEESAGGSAGG [r6_607_TrROS_Hall] | 2.13 ± 0.099
33 | SAGGMKLTPEELKGKTIRIRIKVNGKEYEIEAKVVEVDGELYIEVKIINKETKEEKTITIPLDDVEIVSAGG [r13_289_TrROS_Hall] | 2.67 ± 0.072
34 | SAGGSAGGSAVTVDPSSNVVTTTDPATGTSTVTTTPPLPNGTPVLTSTTTTDAAGTPTTTTVTSAGGSAGGS [r12_952_JUSTAS] | 2.63 ± 0.12
35 | SAGGSAGGKEFEIEKVEITVENGTITIRMIVRDKETNEYYEVEKTITFDPETKELHVEIKVKKVSAGGSAGG [r6_604_TrROS_Hall] | 4.19 ± 0.13
36 | SAGGSMSPWHWARHIAKKLRKKFPPGKKVRIKIEYDDGPVEFEIPPGEWIPIPSNAPIEILNIKVKSAGGSA [r2_391_TrROS] | 1.97 ± 0.034
37 | SAGGSAGGSAGGNWVMIEFNFPPGKKLKIEIPNGRDIQRHRDPDNGTLWFMIPPEAAEDFSAGGSAGGSAGG [r7_155_TrROS] | 0.649 ± 0.11
38 | GSARFEASAFLAELPFPPQRVLVVLVRGEDGRVRLFVFFPDGSVVEFDLETGRVVRVIDLPDAPLPPGLLES [r1_409_TrMRF] | 2.9 ± 0.071
39 | SAGGEVIELKIKFKTPEQREKLKEIAKKLNAEVVEEKDGEVIIRFKTPEQAERALKEAEKLGAEVELSAGGS [r16_88_TrROS_Hall] | 4.29 ± 0.26
40 | PMIAPARLPDGSQTVSIFNANGELLVEAVVENDPELIEEAIEKLFEALPNIKPEELHVSVSDPETGESREIS [r1_55_TrMRF] | 1.05 ± 0.049
41 | SAGGSAGGSAGGNPGGKRQWVMMEFPIPPGKKIELPPNFNVSIFRDNDRLWLMITVDAVKSAGGSAGGSAGG [r7_584_TrROS] | 1.7 ± 0.07
42 | SAGSSSSLPNVLVVTLYLPDAPLPIVLPVDTPEDVELAKERVKEIEKELEELGLPVNVEFKYYPPGFPVSAG [r5_823_TrMRF] | 0.497 ± 0.065

Test: folding stability dG unfold from chymotrypsin proteolysis; higher = more stable
Summary of the method: as §1

Row | Sequence | folding stability dG unfold [kcal/mol]
43 | SAGGSAGGSAGTLKLTLEVTVTRLYRLPDGSGSLVAETVRVRVEVELEVDELDEDGRLLLSAGGSAGGSAGG [r11_558_TrROS_Hall] | 3.269 ± 0.024
44 | SAGMVIPILLKPEPERPEEVEKKAIEFANKLKPLNLPNVKIKVYRAPYVDPETGKTTVLYLVLIEVEPPSAG [r5_49_TrMRF] | 2.79 ± 0.13
45 | SAMTPEEIKERLAAELPPSAEVMTTETFKEGDVEYVKITLRTPDSLSEATYNLETGEIERTPIGLDVPQSAG [r14_737_JUSTAS] | 0.923 ± 0.13
46 | SAGGSAGGSAGKIEVEGDVEVTVFPPYGLATVTTPNGERYVLLVETRPDGSKRVLLFSAGSAGGSAGGSAGG [r11_331_TrMRF] | 2.37 ± 0.026
47 | SAGGSAGGRKTRRLVLEVDDIPEGVSAEELTEEELRRLGLPPDARIRVVRRPDGRLLVVIEVRESAGGSAGG [r6_551_TrROS_Hall] | 2.71 ± 0.0092
48 | SAGGSAGGSAGGMMKITIEVDGKKIEITLPPGAELKFDKEKKEIYIRNKKTNEILKLKIKSAGGSAGGSAGG [r7_7_TrROS_Hall] | 2.35 ± 0.041
49 | SAGGSAGGSAGKKKILLKFKSAEEALEAIKKGKTIKLKNGKTVKVKKVTLDKNGYLLIELSAGGSAGGSAGG [r11_48_TrROS_Hall] | 2.547 ± 0.021
50 | SAGGSAGGSSVLEVDPETGITVAVQDPSTGRYYVRNPEGEIREFDSPEEIREAFGRPVNFKTAPSAGGSAGG [r6_753_JUSTAS] | 0.787 ± 0.082
51 | SAGGDDKWKIEIDIQPHDDYWVITARIRDPNGKERERMFMMPPDNIKKILNELPPEIEDIEVHRVPNSAGGS [r16_298_TrROS] | 2.72 ± 0.045
52 | SAGGSAGGSAGAEIKIKKVEKKDSKLKLILPDGRIYEVKKDKKKSNSIKKIKIKKLPPLKSAGGSAGGSAGG [r17_173_JUSTAS] | -0.181 ± 0.59
53 | SAGGSAGGSAGKKITLPNATITYDEETGEVTITVDGKTITLPPGAKIEVDENGNLTIYLPSAGGSAGGSAGG [r17_34_TrROS_Hall] | 2.71 ± 0.075
54 | SAGGSAGGSAGNMEVIEEVEFTFPGLGVKISVSIFKTDGGIVIMIDIEIPMPPEDRKKFKSAGGSAGGSAGG [r17_431_TrROS] | 1.61 ± 0.18
55 | MKTIEIEIKLSPEIKEALKEGKPLSLEELVNKIKEEIAKKLGLKEVKVKKIEIKKDENGEIIIKVTIEVKPS [r1_290_TrROS_Hall] | 2.77 ± 0.091
56 | SAGMILTIRPEDGSEEIIPVPKEDIEKLIEDLEKKGIKVLSMTTSPDGVSTIPTQYPDGKKMTITVHLDSAG [r5_645_JUSTAS] | 0.677 ± 0.22
57 | SAGGSAGGSAGDENEKPKPKMQMKMIQIKFPPEDLPELAEEFGIDSVHIMPNGSLFIMVYSAGGSAGGSAGG [r11_64_TrROS] | 1.48 ± 0.1
58 | SAGGSAKVIVEELPDGSIKIYFPETGAVIVLNPETGEAVVFVNPKKKNNEPPSLDDVLKAAKEALGSAGGSA [r15_735_TrMRF] | 1.6 ± 0.019
59 | SAMSLTIETDGSLEDVIAALKAFLEANPNVPFIISPPNGEVKVIDLGLADKILVIPDPDGKVRITVINPSAG [r14_807_TrMRF] | 1.7 ± 0.024
60 | SAGGNLFIRIKIEHDGGPITHWFPIKDAEQAKDNIKEFFDQQGLPVKIKEIEVFPEEGFIPVEWRVPPSAGG [r13_567_TrROS] | 0.485 ± 0.12
61 | SAGGSAGGSAGGVPEDVIMSPVSTTLVEKEVLSTEVTPEGAPKTVEKVLIVEKTLEPLLSAGGSAGGSAGGS [r10_758_JUSTAS] | -0.853 ± 0.24
62 | SAGGSAGGSHRIIFRINSPGMPPRQAADRIADMLQEEHGLKIKGVDIWTYPNGSYWVTITIEPSAGGSAGGS [r12_781_TrROS] | 2.98 ± 0.042
63 | SMKIPVKTNDPEALKELLNKIKEILEKAKEKGYEIFPIPIILDNGKEIIFPIDPNDKIEEVIKKIEEALKSA [r9_127_TrMRF] | 1.38 ± 0.097
